These results are taken from patent US20240026037A1 (Memorial Sloan Kettering, published 2024).

What is called koff is the rate constant with which the complex falls apart. As usually defined, the Kd is the concentration at which binding is half-saturated. Broadly, the kon is the second-order rate constant of association. As usually defined, the EC50 is the concentration at which the effect is half-maximal.

Assay [1] has as its target T1, Human GPA33 (recombinant protein, Novoprotein) (human, UniProt Q99795 22-235).
T1 construct: Bought recombinant protein immobilized on a CM5 chip; also called GPA33 antigen; tumor antigen GPA33
T1 sequence: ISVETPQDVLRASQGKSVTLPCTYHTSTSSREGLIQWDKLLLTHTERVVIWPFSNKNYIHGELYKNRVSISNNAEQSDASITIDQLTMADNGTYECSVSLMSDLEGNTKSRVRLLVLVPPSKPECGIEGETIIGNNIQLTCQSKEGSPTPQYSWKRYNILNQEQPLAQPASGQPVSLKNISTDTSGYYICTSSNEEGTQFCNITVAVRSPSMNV
The experiment in a line: SPR (Biacore), human GPA33 immobilized on CM5 chip, two-state fit, kd1. In short, it runs like this: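 Kinetic parameters, including the off-rate (kd1), were obtained by fitting surface plasmon resonance sensorgrams to a two-state binding model. On a Biacore T100 with recombinant human GPA33 immobilised on a CM5 chip, antibodies were passed over at five 2-fold serial dilutions from 20 nM. Runs used 25° C for the parent IgG1, and 25° C and 37° C for the bispecific formats.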

Assay [2] addresses T1, Human GPA33 (recombinant protein, …). The experiment in a line: SPR (Biacore), human GPA33 immobilized on CM5 chip, two-state fit. On the procedure:
(§1) SPR analysis. Human GPA33 (Novoprotein, Summit, NJ) was immobilized on CM5 chips. Five concentrations of 2-fold serially diluted huA33 IgG1 or huA33-BsAbs (starting at 20 nM) were flowed over the chip using a Biacore™ T100 system (GE Healthcare, Chicago, IL). Binding kinetics of huA33 were measured at 25° C. and binding kinetics of huA33-BsAbs were measured at both 25° C. and 37° C. The sensorgrams were fitted with two state binding model for both to derive kinetic parameters.
A general note: In SPR one partner is held on a chip, and binding of the other changes the refractive index at the surface.

For assay [3] the target is unchanged. The experiment in a line: SPR (Biacore), human GPA33 immobilised on the chip; KD relative to that of BC015. In short, it runs like this:
(§2)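 Affinity (KD) was measured by surface plasmon resonance on a Biacore system, with recombinant human GPA33 (Novoprotein) immobilised on a CM5 sensor chip. Antibodies were injected at five concentrations, 2-fold serial dilutions starting at 20 nM. The sensorgrams were fitted kinetically to give rate constants and KD. Each KD is given as a ratio to the KD of a reference molecule.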

Assay [4] shares this target. Kind of assay: SPR (Biacore), human GPA33 immobilized on CM5 chip, two-state fit, ka1. On the procedure:
as §1

Assay [5] has as its target T2, Human GPA33 on GPA33+ colorectal cancer cell lines (Colo 205, LS 174T, SW 1222) (human, UniProt Q99795 22-319).
T2 construct: Endogenous GPA33 on human colorectal cancer cell lines; also called surface human GPA33; GPA33+ tumor cell lines
T2 sequence: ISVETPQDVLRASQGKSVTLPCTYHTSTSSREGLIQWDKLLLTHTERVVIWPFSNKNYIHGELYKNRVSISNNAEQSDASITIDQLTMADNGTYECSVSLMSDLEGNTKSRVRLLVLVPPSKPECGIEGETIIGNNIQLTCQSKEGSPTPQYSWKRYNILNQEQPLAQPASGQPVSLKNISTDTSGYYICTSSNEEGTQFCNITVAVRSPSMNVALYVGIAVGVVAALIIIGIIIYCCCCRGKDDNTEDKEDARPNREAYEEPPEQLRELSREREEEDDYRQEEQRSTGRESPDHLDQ
Kind of assay: FACS titration on Colo205 cells, geometric mean MFI.

In assay [6] the target is T2, Human GPA33 on GPA33+ colorectal cancer …. The experiment in a line: FACS titration on SW1222 cells, geometric mean MFI [Cont.].
For assay [7] the target is unchanged. The experiment in a line: FACS binding to LS174T cells (GPA33+).
Assay [8] has the same target. Kind of assay: FACS binding to SW1222 cells (GPA33+).
Assay [9] has as its target T1, Human GPA33 (recombinant protein, …). The experiment in a line: SPR (Biacore), human GPA33 immobilised on the chip; KD relative to that of TC170. In short, it runs like this:
as §2

Assay [10] deals with T2, Human GPA33 on GPA33+ colorectal cancer …. The experiment in a line: FACS binding to Colo205 cells (GPA33+). In general terms: Flow cytometry measures light scatter and fluorescence of single cells or particles in a stream.
Assay [11] has the same target. The experiment in a line: FACS titration on LS174T cells, geometric mean MFI [Cont.].

B1: BC105 (bispecific antibody, human IgG1, kappa, N297A)
heavy: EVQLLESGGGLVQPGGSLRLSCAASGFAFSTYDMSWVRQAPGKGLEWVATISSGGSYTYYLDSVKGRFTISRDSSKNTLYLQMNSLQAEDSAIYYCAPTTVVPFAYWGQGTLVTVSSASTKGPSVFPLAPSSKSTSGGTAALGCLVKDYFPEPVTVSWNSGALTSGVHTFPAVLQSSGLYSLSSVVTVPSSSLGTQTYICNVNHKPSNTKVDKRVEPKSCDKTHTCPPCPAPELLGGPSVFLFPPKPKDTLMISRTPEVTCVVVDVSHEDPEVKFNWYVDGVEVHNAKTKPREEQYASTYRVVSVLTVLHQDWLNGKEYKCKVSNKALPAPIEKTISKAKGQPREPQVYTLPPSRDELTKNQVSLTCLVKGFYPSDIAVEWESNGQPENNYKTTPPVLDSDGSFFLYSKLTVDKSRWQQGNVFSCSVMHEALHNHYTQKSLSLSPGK
light: DIQMTQSPSSLSVSVGDRVTITCKASQNVRTVVAWYQQKPGLAPKTLIYLASNRHTGVPSRFSGSGSGTDFTFTISSLQPEDIATYFCQQHWSYPLTFGQGTKVEVKRTVAAPSVFIFPPSDEQLKSGTASVVCLLNNFYPREAKVQWKVDNALQSGNSQESVTEQDSKDSTYSLSSTLTLSKADYEKHKVYACEVTHQGLSSPVTKSFNRGECGGGGSGGGGSASHVKLQESGPGLVQPSQSLSLTCTVSGFSLTDYGVHWVRQSPGKGLEWLGVIWSGGGTAYNTALISRLNIYRDNSKNQVFLEMNSLQAEDTAMYYCARRGSYPYNYFDAWGCGTTVTVSSGGGGSGGGGSGGGGSQAVVIQESALTTPPGETVTLTCGSSTGAVTASNYANWVQEKPDHCFTGLIGGHNNRPPGVPARFSGSLIGDKAALTIAGTQTEDEAIYFCALWYSDHWVIGGGTRLTVLG
notes: Previously described GPA33xDOTA IgG-[L]-scFv clone; The light chain entry carries the anti-DOTA scFv at its C-terminus; also called GPA33 BsAb-IgG (BC105); GPA33 clone BC105 BsAb
As for B1, the koff in assay [1] worked out at 0.0236 s⁻¹. Further, in [2], the equilibrium dissociation constant (Kd) is 1210 pM, the ka2 came to 0.00238 s⁻¹ and the kd2 turned out to be 0.000697 s⁻¹. Besides, the “Fold change of KD (relative to BC015, lower is better)” value in [3] was 10.2. Besides, the kon in assay [4] is 4.43e+06 M⁻¹ s⁻¹.

B2: TC234 (bispecific antibody)
chain: EVQLVESGGGLVDPGGSLRLSCAASGFAFSTYDMSWVRQAPGKGLEWVSTISSGGSYTYYADSVKGRFTISRDNAKNSLYLQMNSLRAEDTAVYYCAPTTVVPFAYWGQGTLVTVSAGGGGSGGGGSGGGGSGGGGSGGGGSGGGGSDIQMTQSPSSLSASVGDRVTITCKASQNVRTVVAWYQQKPGKAPKTLIYLASNRHTGVPSRFSGSGSGTEFTLTISNLQPEDFATYYCLQHWSYPLTFGSGTKLEVKRGGGGSGGGGSGGGGSGGGGSHVQLVESGGGLVQPGGSLRLSCAASGFSLTDYGVHWVRQAPGKGLEWLGVIWSGGGTAYNTALISRFTISRDNSKNTLYLQMNSLRAEDTAVYYCARRGSYPYNYFDAWGCGTLVTVSSGGGGSGGGGSGGGGSGGGGSGGGGSGGGGSQAVVTQEPSLTVSPGGTVTLTCGSSTGAVTASNYANWVQQKPGQCPRGLIGGHNNRPPGVPARFSGSLLGGKAALTLLGAQPEDEAEYYCALWYSDHWVIGGGTKLTVLGTPLGDTTHTSGKPLDGEYFTLQIRGRERFEMFRELNEALELKDAQAGKEPGGSGGAPHHHHHH
notes: pI variant of TC170 with a single mutation; Carries the p53 SADA (tetramerization) domain; also called GPA33xDOTA SADA; pI variant of TC170
For B2, the EC50 in assay [5] was found to be 710 pM; in [6], 2050 pM; in assay [7], 210 pM; in assay [8], 2050 pM; in assay [10] it was 710 pM; in assay [11], 210 pM. Besides, the off-rate (koff) in assay [1] worked out at 0.000966 s⁻¹. Besides, the Kd in assay [2] came out at 12.2 pM. The ka2 in [2] is 0.00566 s⁻¹. Further, the kd2 in [2] worked out at 0.000353 s⁻¹. The “fold change of binding EC50 (relative to TC170, lower is better)” value in assay [7] was found to be 0.68; in [8], 1.24; in assay [10], 0.96. The kon in [4] was found to be 4.65e+06 M⁻¹ s⁻¹. For the same molecule, the “Fold change of KD (relative to TC170, lower is better)” value in assay [9] came out at 0.8.

B3: TC213 (bispecific antibody)
chain: EVQLVESGGGLVDPGGSLRLSCAASGFAFSTYDMSWVRQAPGKGLEWVSTISSGGSYTYYADSVKGRFTISRDNAANSLYLQMNSLRAEDTAVYYCAPTTVVPFAYWGQGTLVTVSAGGGGSGGGGSGGGGSGGGGSGGGGSGGGGSDIQMTQSPSSLSASVGDRVTITCKASQNVRTVVAWYQQKPGKAPKTLIYLASNRHTGVPSRFSGSGSGTEFTLTISNLQPEDFATYYCLQHWSYPLTFGSGTKLEVKRGGGGSGGGGSGGGGSGGGGSHVQLVESGGGLVQPGGSLRLSCAASGFSLTDYGVHWVRQAPGKGLEWLGVIWSGGGTAYNTALISRFTISRDNSKNTLYLQMNSLRAEDTAVYYCARRGSYPYNYFDAWGCGTLVTVSSGGGGSGGGGSGGGGSGGGGSGGGGSGGGGSQAVVTQEPSLTVSPGGTVTLTCGSSTGAVTASNYANWVQQKPGQCPRGLIGGHNNRPPGVPARFSGSLLGGKAALTLLGAQPEDEAEYYCALWYSDHWVIGGGTKLTVLGTPLGDTTHTSGKPLDGEYFTLQIRGRERFEMFRELNEALELKDAQAGKEPGGSGGAPHHHHHH
notes: pI variant of TC170 with a double mutation in the GPA33 scFv; Carries the p53 SADA (tetramerization) domain; also called GPA33xDOTA SADA; pI variant of TC170
For the molecule B3, the EC50 in [5] was 550 pM; in [6], 1050 pM; in assay [7] it was 230 pM; in assay [8], 1050 pM; in [10], 550 pM; in assay [11] it was 230 pM. Besides, in assay [1], the koff was 0.000857 s⁻¹. The Kd in assay [2] is 21.8 pM. In addition, the ka2 in [2] stood at 0.00636 s⁻¹. Moreover, the kd2 in [2] came out at 0.000611 s⁻¹. Also, the “fold change of binding EC50 (relative to TC170, lower is better)” value in assay [7] came to 0.74; in [8], 0.64; in assay [10] it was 0.74. Further, the kon in assay [4] turned out to be 3.44e+06 M⁻¹ s⁻¹. The “Fold change of KD (relative to TC170, lower is better)” value in assay [9] is 1.4.

B4: TC235 (bispecific antibody)
chain: EVQLVESGGGLVDPGGSLRLSCAASGFAFSTYDMSWVRQAPGKGLEWVSTISSGGSYTYYADSVKGRFTISRDNAANSLYLQMNSLRAEDTAVYYCAPTTVVPFAYWGQGTLVTVSAGGGGSGGGGSGGGGSGGGGSGGGGSGGGGSDIQMTQSPSSLSASVGDRVTITCKASQNVRTVVAWYQQKPGQAPKTLIYLASNRHTGVPSRFSGSGSGTEFTLTISNLQPEDFATYYCLQHWSYPLTFGSGTKLEVKRGGGGSGGGGSGGGGSGGGGSHVQLVESGGGLVQPGGSLRLSCAASGFSLTDYGVHWVRQAPGKGLEWLGVIWSGGGTAYNTALISRFTISRDNSKNTLYLQMNSLRAEDTAVYYCARRGSYPYNYFDAWGCGTLVTVSSGGGGSGGGGSGGGGSGGGGSGGGGSGGGGSQAVVTQEPSLTVSPGGTVTLTCGSSTGAVTASNYANWVQQKPGQCPRGLIGGHNNRPPGVPARFSGSLLGGKAALTLLGAQPEDEAEYYCALWYSDHWVIGGGTKLTVLGTPLGDTTHTSGKPLDGEYFTLQIRGRERFEMFRELNEALELKDAQAGKEPGGSGGAPHHHHHH
notes: pI variant of TC170 with a triple mutation in the GPA33 scFv; Carries the p53 SADA (tetramerization) domain; also called GPA33xDOTA SADA; pI variant of TC170
B4: the EC50 in [5] is 530 pM; in assay [6], 1030 pM; in assay [7] it was 220 pM; in assay [8] it was 1030 pM; in assay [10], 530 pM; in assay [11] it was 220 pM. Also, the koff in [1] is 0.000981 s⁻¹. Moreover, the Kd in assay [2] was 24.2 pM. Besides, the ka2 in assay [2] amounted to 0.00561 s⁻¹. Also, the kd2 in assay [2] worked out at 0.00051 s⁻¹. Besides, the “fold change of binding EC50 (relative to TC170, lower is better)” value in assay [7] is 0.71; in [8], 0.62; in [10], 0.72. Also, in [4], the kon turned out to be 3.38e+06 M⁻¹ s⁻¹. Moreover, the “Fold change of KD (relative to TC170, lower is better)” value in assay [9] stood at 1.5.
